Key:
Assay in all cases: not read
not read [1] = substrate: CN1CC=C(c2ccncc2)CC1
Description: (§1) Km against bovine liver Monoamine oxidase B

not read [2] = substrate: CN1CC=C(c2ccc[nH]2)CC1
Description: as §1

not read [3] = substrate: CN1CC=C(n2ccc3ccccc32)CC1
Description: as §1

not read [4] = substrate: CN1CC=C(c2cccn2C)CC1
Description: as §1

not read [5] = substrate: CN1CC=C(n2cnc3ccccc32)CC1
Description: as §1

not read [6] = substrate: CN1CC=C(n2cccc2)CC1
Description: as §1

not read [7] = substrate: CN1CC=C(n2nnc3ccccc32)CC1
Description: as §1

not read [8] = substrate: CN1CC=C(n2ncc3ccccc32)CC1
Description: as §1

B1: Amine oxidase [flavin-containing] B (Bos taurus) (protein)
chain: MSSKCDVVVVGGGISGMAAAKLLHDSGLNVIVLEARDRVGGRTYTLRNQKVKYVDLGGSYVGPTQNHILRLSKELGLETYKVNEVERLIHHTKGKSYPFRGSFPSVWNPITYLDHNNLWRTMDDMGREIPSDAPWKAPLAEQWDLMTMKELLDKICWTESSKQLAILFVNLCVTAEIHEVSALWFLWYVKQCGGTTRIFSTSNGGQERKFVGGSGQVSERIMDLLGDRVKLERPVIHIDQTGENVLVETLNHELYEAKYVISAVPPVLGMKIHFNPPLPMMRNQLITRVPLGSVIKSIVYYKEPFWRNMDYCGSMIIEGEEAPVAYALDDTKPDGSYPAIIGFILAHKARKLARLTKEERLKKLCDLYAKVLGSQEALHPVHYEEKNWCEEQYSGGCYTSYFPPGIMTQYGRVLRQPVGRIYFAGTETATHWSGYMEGAVEAGERAAREILHAMGKIPEDEIWLPEPESVDVPAKPITTTFLQRHLPSVPGLLKLIGLTTIFSATALGFLAHKRGLLVRI
Q: B1 was tested. Which Km (not read [1]) did it give?
A: 2400 µM

Q: And the kcat (not read [1])?
A: 0.233 s⁻¹

Q: What about the Km (not read [2]) of the same protein?
A: 1800 µM

Q: What about the kcat (not read [2]) of the same protein?
A: 1.42 s⁻¹

Q: And the Km (not read [3])?
A: 110 µM

Q: What about the kcat (not read [3]) of the same protein?
A: 6.9 s⁻¹

Q: What about the Km (not read [4]) of the same protein?
A: 200 µM

Q: And the kcat (not read [4])?
A: 6 s⁻¹

Q: What about the Km (not read [5]) of the same protein?
A: 900 µM

Q: What about the kcat (not read [5]) of the same protein?
A: 3.33 s⁻¹

Q: What about the Km (not read [6]) of the same protein?
A: 650 µM

Q: What about the kcat (not read [6]) of the same protein?
A: 4.47 s⁻¹

Q: What about the Km (not read [7]) of the same protein?
A: 80 µM

Q: And the kcat (not read [7])?
A: 0.9 s⁻¹

Q: What about the Km (not read [8]) of the same protein?
A: 100 µM

Q: And the kcat (not read [8])?
A: 2 s⁻¹

Reference: ChEMBL document CHEMBL1132216, “Studies on the monoamine oxidase-B-catalyzed biotransformation of 4-azaaryl-1-methyl-1,2,3,6-tetrahydropyridine derivatives” (J Med Chem, 1999)
